Experimental data as given in publication doi:10.1101/2023.02.16.528878 (bioRxiv, 2023).

B1: recombinant UFC1 (enzyme)
chain: MADEATRRVVSEIPVLKTNAGPRDRELWVQRLKEEYQSLIRYVENNKNADNDWFRLESNKEGTRWFGKCWYIHDLLKYEFDIEFDIPITYPTTAPEIAVPELDGKTAKMYRGGKICLTDHFKPLWARNVPKFGLAHLMALGLGPWLAVEIPDLIQKGVIQHKEKCNQ

How the values were obtained:
GST-CDK5RAP3 = target: T1, GST-CDK5RAP3 (human, UniProt Q96JB5 1-506); assay: pull-down
T1 sequence: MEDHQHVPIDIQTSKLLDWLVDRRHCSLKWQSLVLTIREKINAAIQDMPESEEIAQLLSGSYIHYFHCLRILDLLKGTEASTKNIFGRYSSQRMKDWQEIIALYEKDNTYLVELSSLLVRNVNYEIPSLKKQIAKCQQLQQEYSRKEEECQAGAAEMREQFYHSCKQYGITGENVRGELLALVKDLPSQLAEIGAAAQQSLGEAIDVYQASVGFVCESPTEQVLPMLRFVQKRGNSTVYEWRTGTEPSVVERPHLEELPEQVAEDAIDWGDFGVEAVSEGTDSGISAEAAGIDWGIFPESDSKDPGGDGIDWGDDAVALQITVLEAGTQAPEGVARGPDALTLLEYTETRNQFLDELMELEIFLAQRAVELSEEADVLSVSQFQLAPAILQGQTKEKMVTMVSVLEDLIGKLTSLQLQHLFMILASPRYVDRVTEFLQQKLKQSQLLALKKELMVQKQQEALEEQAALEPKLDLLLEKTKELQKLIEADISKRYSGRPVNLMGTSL

recombinant UFC1 = target: B1; assay: ITC

B1
binding result (GST-CDK5RAP3): binds

MADAWEEIRRLAADFQRAQFA [UFL1^UBS peptide, UFL1(1-21)]
Kd (recombinant UFC1): 0.41 µM
